Test results as given in the supplement of paper PMC9170038.

What follows are sequences tested on K4 kissing-loop RNA reporter (assay: apparent KD of K4 kissing-loop reporter; higher = weaker reporter binding). Settings: Eterna round: R107; input ligand: FMN 200 uM.
Description: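 RNA-MaP round R107: designed RNA switches with theophylline, tryptophan, arginine or FMN aptamers are transcribed on-chip within common flanks. They are titrated with a labelled K4 kissing-loop RNA reporter in RNA-MaP buffer (100 mM Tris pH 7.5, 80 mM KCl, 4 mM MgCl2), without ligand or with the indicated ligand. Median apparent KD per design.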
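Note: bound reporter read as fluorescence of individual clusters on recovered sequencing chips by microscopy, with normalized cluster intensities fitted with a binding model.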

First: UGGCGACUGCCAGUGAUGUUGGCCGUCGUACGAGGACCGGUACGGCCGCCACUCGUCCUGGUUUAGGCUCCGCCUUCACAUCAGG [Beterire]
Second: GAGGAUAGCGGAAGGAGCGAGUAAUGGAGUGAUGUUCCAAUCAAUAAAACACGAUAGAGUGCUCAGGUAGGUCGCCGUGGUGGUU [Exclusion Argiie B GF 13]
The “apparent KD of K4 kissing-loop reporter” value of the first is 3.2-fold higher: 401 nM for the first, 124 nM for the second.

First: GGAGUAACCUGGGAUACCAGUCGGAGGCCUAGGGAUCGGAGUGAUGUUCUGGGAUGUUUCGGCCCUUGGCAGCUCUGGGUCUCCG [#2 Exclusion - Theophylline B Attempt #2 (HarryS)]
Second: ACAUAGGAUGGAAGGAGCGCUCGUCAGUCCUGCGAGUGAUGUUCGUGGGUAAAUAUUCGCGAGCAGGUAGGUCGCCAUCUUGAAA [Vedi]
The “apparent KD of K4 kissing-loop reporter” value of the first is 1.7-fold higher: 184 nM for the first, 109 nM for the second.

Compared with “UGAUACCAGACUGAUACCAGCCAGUGAUGUUGGCAAUAACCAAGGCGAGUCAAAGACUCGGGCCCUUGGCAGCAGUCUGGUAUCU [TheoBX 6 #SwitchBubble #StaticStem]”, “AGGAUGUAGUGAUGUUAUAUAAGAAGUAAACGAGGACCGGUACGGCCGCCACUCGAAGCGGCUACUAGCGUGUUGCGAGGUGCGC [ExTryptoA.Cd]” is 2.8-fold higher in “apparent KD of K4 kissing-loop reporter” value: 134 nM for the first, 370 nM for the second.

Compared with “AAGUGAUGUUGUAGUGAUGUUGUGAUGUUGCAGGAUAUAUAGUGAUGUAGAAGGGUAUGUACAGUUUUUUUUUUUGAGUGAUGAU [vvcvmullin]”, “AGUGUUAGGUUAGAUACCAGCCGUCUGUAGAUAAUCCUCAGACCGCCAGUGAUGUUGGCAGGCCCUUGGCAGCUAACAGAACAGA [Orbediqu]” is 2.9-fold higher in “apparent KD of K4 kissing-loop reporter” value: 82.3 nM for the first, 238 nM for the second.

Going from “UCCUGCUGUCUGCCACGAAAGUGGAUUGAUACCAGAGUCGAAAGACUCCCUUGGCAGCGAGUGAUGUUCGAAGCAGGUAAAUAAA [MatMod 2 - Jieux - Exclusion - Theophylline A]” to “AGUGCUAUGACGGCCGCCACUGAUUACCAGUGAUGUUGGUAGUCCAUUUACGACUUCCUGAUAACCAGGACCGGGUCAUAGGUCG [Tryp B Ex t2]”, the “apparent KD of K4 kissing-loop reporter” value rises from 210 nM to 702 nM (3.3-fold).

First: UCCUGCAAUCGUCCACGAAAGUGGAUCGAUACCAGAGUCGAAAGACUCCCUUGGCAGCGAGUGAUGUUCGAAGCAGGUAAAUAAA
Second: GCUAAGGAGUGAUGUUCCAAGUGAUGUUAACGAGGACCGGUACGGCCGCCACUCGAUACGGCCGGAAAGUAAGAUAAACUACAGU [Same State - Tryptophan A (Freestyle 4)]
The “apparent KD of K4 kissing-loop reporter” value of the first is 6.3-fold higher: 487 nM for the first, 77.5 nM for the second.

Going from “ACCGCAUUGGGCUGAUCCCAAUGCGCUGGUCGAGGACCGGUACGGCCGCCACUCGUCCAGUGAUGUUGGACUAGGGCAACUGAAG [Veraceer]” to “UGACUGGACUGAAGGAGCGGGCGAGACAAAGUCUCGAACUCUUAGUGAUGUUAGGAAAUAACCCAGGUAGGUCGCAGUCUAGUCU”, the “apparent KD of K4 kissing-loop reporter” value falls from 390 nM to 243 nM (1.6-fold).

“AAAAUAAUCCAGUGAUGUUGGUAACCAGAUACCAGCGACGAAAGUCGCCCUUGGCAGCUGUGGACGUACAAAAUAAGUACGUCCU” and “AGACUACCACACUGUCAAUAGACAGUGAGCUAGGAUAUGCUGAUAAGCAGAAGGAGUGAUGUUCCUGGGUAGUCAAUAAAAUAAU [FmnAX 13 G29+G67]” are within 1.5-fold of each other in “apparent KD of K4 kissing-loop reporter” value: 344 nM for the first, 399 nM for the second.

“AAUUCAAACUGAAGGAGCGAGCAUUUUGGAGUGAUGUUCCAAGCGAGUGAUGUUCGCAUAGCUCAGGUAGGUCGCAGUUUGGAUA [Same State Arginie B GF 14]” and “GAUUAAUAAGAGGAUACCAGUACAAAUAAAGUACAUUAAUAGUAGAGUGAUGUUCUAAAGUACCCUUGGCAGCUUAGAGUAAGUU [ExTheophylB.A]” are within 1.5-fold of each other in “apparent KD of K4 kissing-loop reporter” value: 143 nM for the first, 119 nM for the second.

“GGGAGGAGUGGUGUUGAUUAAGAAGCGGAAGGAGCGCCGAAGAAGGCAGGUAGGUCGCCGGAAUAUAGUGAUGUUAUAUAGAGGG [ExArg.E]” and “AAAGUAUACUGAAGGAGCGAGUAGUGGAAACAUAAACUCAUUGCGAGUGAUGUUCGCAGUACUCAGGUAGGUCGCGGUAAUCGUA [Exclusion Arginine B Gf 12]” are within 1.5-fold of each other in “apparent KD of K4 kissing-loop reporter” value: 529 nM for the first, 499 nM for the second.

Compared with “AGACUACCACACUGUCAAUAGACAGUGAACUAGGAUAUGCUGAUAAGCAGAAGGAGUGAUGUUCCUAAAGGUAGUCAAAUAUAAU [FmnAX 14 #SwitchBubble #StaticStem #K4Early]”, “GGCGGCCGCGCGAAAGCGCGGCCGGCCGAUACCAGCGCGCCGGCGCGCCCUUGGCAGCGGCGCCGAGUGAUGUUCGGCCUGCCGU [#2 Same State - Theophylline A Attempt #12 (HarryS)]” is 2.3-fold lower in “apparent KD of K4 kissing-loop reporter” value: 335 nM for the first, 144 nM for the second.

First: GCAUGGGUGCUUGCACAAGUGAUGUUUGGGCGAGGACCGGUACGGCCGCCACUCGUACGUUUAGUUAAAAGACAUCAUGCGAGUC [theeternabot_exclusion_KL_Trp_A_11]
Second: UUAGAGAUCUCAGGAUAUCAGUGAUGUUGAGAUUCAGAUCUGAGAUAGAAUUCUAUCUCAGAUCAAUGAGAAGGGAGAUCUCAUU [AK4.4 Exc FMN B]
The “apparent KD of K4 kissing-loop reporter” value of the first is 1.6-fold lower: 291 nM for the first, 463 nM for the second.

Compared with “AACAUUUUCAGAAGGAGCGUGAAUUAUUCAUAAUUAUAUUAUACGAGUGAUGUUCGUAUUUCACAGGUAGGUCGCUGAUAUAGUA [#02 K4 Arginine B Same State]”, “CGCCACAACUGAAGGAGCGCGCCAGUGAUGUUGGACGGCUUCGUCAAGGAAACUGCACCGGUGCAGGUAGGUCGCAGUGCGUGGU [Eranarve]” is 2-fold higher in “apparent KD of K4 kissing-loop reporter” value: 94.5 nM for the first, 186 nM for the second.

Going from “GUCUCGAGUGAUGUUCGGGUCGAUUGGGAAGGAGCGCCCGGAAGGGCAGGUAGGUCGCCCGGGCCGCGCGGGAAACCGCGCGUCC [#2 Same State - Arginine A Attempt #8 (HarryS)]” to “UGAUAGGACAGAAGGAGCGGGAGUGAUGUUCCCAAAAGGAUAAGGUGUCAAAAGACACCCUCCCAGGUAGGUCGCUGUCCUAUCU”, the “apparent KD of K4 kissing-loop reporter” value rises from 208 nM to 577 nM (2.8-fold).

Compared with “UCGAAGGAUGGAAGGAGCGCUCGUCAGUCCUGCGAGUGAUGUUCGUGGGUAAAUAUUCGCGAGCAGGUAGGUCGCCAUCUCGAAC [Erbemaa]”, “AAGGACUGCCAGGGAACACACUCAUUAUGGGAGGAUAUGUUAGCUGACAGAAGGCCCAGUGAUGUUGGGCCGGCGGGCUGUCAGG [Diargean]” is 1.6-fold higher in “apparent KD of K4 kissing-loop reporter” value: 149 nM for the first, 244 nM for the second.

Going from “CUGGGUUGACGAAAAGUCAACAAAAGAGAAGGAGCGCACGAAAGUGCAGGUAGGUCGCUCAGUCCAGUGAUGUUGGAUCAUCCAG [#SwitchBubble 11 #K4Late]” to “GAGGUGCUGAUGCGGUGGCCGGUGGUCGUGCGAGGACCGGUACGGCCGCCACUCGCAUGAGUGAUGUUCAUGUGUCGUCGUCGUC [whbob_EX_Tryp_A_t3]”, the “apparent KD of K4 kissing-loop reporter” value falls from 324 nM to 172 nM (1.9-fold).

Same assay, conditions: Eterna round: R107; input ligand: arginine 13.2 mM

Compared with “UGGCGACUGCCAGUGAUGUUGGCCGUCGUACGAGGACCGGUACGGCCGCCACUCGUCCUGGUUUAGGCUCCGCCUUCACAUCAGG [Beterire]”, “GAGGAUAGCGGAAGGAGCGAGUAAUGGAGUGAUGUUCCAAUCAAUAAAACACGAUAGAGUGCUCAGGUAGGUCGCCGUGGUGGUU [Exclusion Argiie B GF 13]” is 2.3-fold lower in “apparent KD of K4 kissing-loop reporter” value: 326 nM for the first, 143 nM for the second.

“GGAGUAACCUGGGAUACCAGUCGGAGGCCUAGGGAUCGGAGUGAUGUUCUGGGAUGUUUCGGCCCUUGGCAGCUCUGGGUCUCCG [#2 Exclusion - Theophylline B Attempt #2 (HarryS)]” and “ACAUAGGAUGGAAGGAGCGCUCGUCAGUCCUGCGAGUGAUGUUCGUGGGUAAAUAUUCGCGAGCAGGUAGGUCGCCAUCUUGAAA [Vedi]” are within 1.5-fold of each other in “apparent KD of K4 kissing-loop reporter” value: 105 nM for the first, 115 nM for the second.

Going from “UGAUACCAGACUGAUACCAGCCAGUGAUGUUGGCAAUAACCAAGGCGAGUCAAAGACUCGGGCCCUUGGCAGCAGUCUGGUAUCU [TheoBX 6 #SwitchBubble #StaticStem]” to “AGGAUGUAGUGAUGUUAUAUAAGAAGUAAACGAGGACCGGUACGGCCGCCACUCGAAGCGGCUACUAGCGUGUUGCGAGGUGCGC [ExTryptoA.Cd]”, the “apparent KD of K4 kissing-loop reporter” value rises from 150 nM to 324 nM (2.2-fold).

Going from “AAGUGAUGUUGUAGUGAUGUUGUGAUGUUGCAGGAUAUAUAGUGAUGUAGAAGGGUAUGUACAGUUUUUUUUUUUGAGUGAUGAU [vvcvmullin]” to “AGUGUUAGGUUAGAUACCAGCCGUCUGUAGAUAAUCCUCAGACCGCCAGUGAUGUUGGCAGGCCCUUGGCAGCUAACAGAACAGA [Orbediqu]”, the “apparent KD of K4 kissing-loop reporter” value rises from 40.1 nM to 206 nM (5.1-fold).
